# Measurements: patent publication US20130115626A1 (Genentech, published 2013)
# B1: monoclonal anti-NRP1 antibody 7130 (antibody, V domains shown)
# VH: QLVEESGGGLVTPGGTLTLTCTASGFTISNYHMSWVRQAPGKGLEWIGIIYAVSAATWSATWVKGRFTISKTLTTVDLKMTSLTAADTATYFCARVRAPGDSTYYDLWGPGTLVTVSS
# VL: AVVMTQTASPVSAVVGGTVTINCQASQTISNNWLSWYQQKPGQPPKLLIYKASILASGVPSRFSGSGSGTEFTLTISGVQCDDAATYYCLYGHYITTSAHNAFGGGTEVVVKG
# notes: Rabbit monoclonal antibody from a hybridoma (rabbit immunised with human soluble NRP1)
# Molecular target: T1, full length human NRP1 on transfected HEK-293 cells (human, UniProt O14786 22-923)
# T1 construct: whole, on cells; also called HEK-293 cells transfected with human NRP1
# T1 sequence (O14786 22-923): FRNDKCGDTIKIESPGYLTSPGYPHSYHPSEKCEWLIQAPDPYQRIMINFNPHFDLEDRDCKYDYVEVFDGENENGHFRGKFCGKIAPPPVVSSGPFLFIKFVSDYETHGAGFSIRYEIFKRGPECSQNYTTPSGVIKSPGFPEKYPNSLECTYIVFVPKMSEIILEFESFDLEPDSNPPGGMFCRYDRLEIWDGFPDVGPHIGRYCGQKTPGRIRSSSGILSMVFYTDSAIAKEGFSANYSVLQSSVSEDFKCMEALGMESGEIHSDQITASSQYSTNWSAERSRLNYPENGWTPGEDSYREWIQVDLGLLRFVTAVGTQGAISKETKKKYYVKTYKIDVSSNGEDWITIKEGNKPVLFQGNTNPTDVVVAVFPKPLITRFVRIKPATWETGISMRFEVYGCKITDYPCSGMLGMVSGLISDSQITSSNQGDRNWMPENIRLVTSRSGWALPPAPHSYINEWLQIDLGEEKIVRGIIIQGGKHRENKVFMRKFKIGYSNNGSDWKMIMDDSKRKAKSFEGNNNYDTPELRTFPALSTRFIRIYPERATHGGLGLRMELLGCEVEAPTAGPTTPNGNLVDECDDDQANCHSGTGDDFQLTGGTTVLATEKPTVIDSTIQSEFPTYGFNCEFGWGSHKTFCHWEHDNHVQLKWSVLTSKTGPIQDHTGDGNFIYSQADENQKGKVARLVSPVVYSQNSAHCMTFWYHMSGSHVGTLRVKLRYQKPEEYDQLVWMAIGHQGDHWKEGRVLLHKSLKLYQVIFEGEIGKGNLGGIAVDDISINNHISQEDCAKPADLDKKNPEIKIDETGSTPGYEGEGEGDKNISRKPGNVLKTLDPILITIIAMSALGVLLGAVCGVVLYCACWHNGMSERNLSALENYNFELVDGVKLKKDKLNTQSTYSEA
# Experiment: immunohistochemistry on transfected HEK-293 cells, antibody at 1 ug/ml; cells with empty vector as negative control
# Experimental: Immunohistochemistry (IHC) was performed on freshly cut tissue sections following standard procedure. […] The specificity of the anti-NRP1 antibody was assessed using HEK-293 cells transfected with human NRP1 and empty vector as control (see FIGS. 1A and 1B). To assess expression, whole sections were scored semi-quantitatively on a scale of zero (no expression) to three (very strong signal), according to the intensity of chromagen deposition in ≧10% of neoplastic cells or endothelium.
binder,measurement,value
B1,binding result,binds
